Assay results as given in patent publication US20220372138A1 (IOMX THERAPEUTICS, published 2022).
Numbering of substitutions follows the chain as printed.

Columns and labels:
[1] = biological target: T1, ECD of murine IGSF11, recombinant biotinylated (mouse, UniProt P0C673 23-240); assay: ELISA RFU>1.0
T1 construct: whole entry named; also called Mouse IGSF11
T1 sequence: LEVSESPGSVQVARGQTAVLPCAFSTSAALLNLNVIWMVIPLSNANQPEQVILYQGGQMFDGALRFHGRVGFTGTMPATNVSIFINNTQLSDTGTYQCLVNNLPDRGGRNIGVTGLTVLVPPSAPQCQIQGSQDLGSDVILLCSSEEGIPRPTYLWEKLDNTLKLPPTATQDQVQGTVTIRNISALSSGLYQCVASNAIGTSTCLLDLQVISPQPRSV

[2] = biological target: T2, extracellular domain (ECD) of human IGSF11 (VSIG3), recombinant (human, UniProt Q5DX21 23-241); assay: ELISA RFU 0.5-1.0
T2 construct: biotinylated where captured on streptavidin; tags of the reagent not always stated; also called IGSF11 (ECD domain); ECD-IGSF11
T2 sequence: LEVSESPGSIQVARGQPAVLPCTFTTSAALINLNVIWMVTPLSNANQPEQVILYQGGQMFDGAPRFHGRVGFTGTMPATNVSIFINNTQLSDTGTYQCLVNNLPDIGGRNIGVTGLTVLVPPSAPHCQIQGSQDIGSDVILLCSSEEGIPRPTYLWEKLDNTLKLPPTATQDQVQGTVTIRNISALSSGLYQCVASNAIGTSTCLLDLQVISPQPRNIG

[3] = biological target: T2, extracellular domain (ECD) of human …; assay: ELISA RFU 0.1-0.5
[4] = biological target: T3, IgV domain of human IGSF11 fused to murine IgG2a Fc (human, UniProt Q5DX21 23-143); assay: IgG ELISA;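 note: ELISA binding of IgG antibodies to plate-coated IGSF11 Fc-fusion proteins (full-length ECD, IgV or IgC2 domain), detected via HRP-labelled anti-human IgG with TMB development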
T3 construct: not shown: murine IgG2a Fc-region
T3 sequence: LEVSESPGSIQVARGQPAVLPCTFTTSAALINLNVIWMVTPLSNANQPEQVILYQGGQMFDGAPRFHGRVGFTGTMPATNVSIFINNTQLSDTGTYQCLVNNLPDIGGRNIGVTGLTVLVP

[5] = biological target: T4, full-length ECD of human IGSF11 fused to murine Fc (human, UniProt Q5DX21 23-241); assay: IgG ELISA;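 note: ELISA binding of IgG antibodies to plate-coated IGSF11 Fc-fusion proteins (full-length ECD, IgV or IgC2 domain), detected via HRP-labelled anti-human IgG with TMB development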
T4 construct: also called Fc-fusion IGSF11 ECD; not shown: murine Fc
T4 sequence: T2 sequence

[6] = biological target: T1, ECD of murine IGSF11, recombinant …; assay: Fab ELISA
Streptavidin = Streptavidin (UniProt P22629 37-163, limits assumed); assay: Fab ELISA
[7] = biological target: T5, ECD of cynomolgus monkey IGSF11, recombinant biotinylated (cynomolgus monkey, UniProt Q5DX21 23-241 (human entry)); assay: Fab ELISA
T5 construct: whole entry named
T5 chain: T2 sequence with P17T, I83V, A185T, S187T

[8] = biological target: T6, human IGSF11 (VSIG3) expressed on cells (human, UniProt Q5DX21 23-431); assay: IgG1 FACS DMS 273
T6 sequence: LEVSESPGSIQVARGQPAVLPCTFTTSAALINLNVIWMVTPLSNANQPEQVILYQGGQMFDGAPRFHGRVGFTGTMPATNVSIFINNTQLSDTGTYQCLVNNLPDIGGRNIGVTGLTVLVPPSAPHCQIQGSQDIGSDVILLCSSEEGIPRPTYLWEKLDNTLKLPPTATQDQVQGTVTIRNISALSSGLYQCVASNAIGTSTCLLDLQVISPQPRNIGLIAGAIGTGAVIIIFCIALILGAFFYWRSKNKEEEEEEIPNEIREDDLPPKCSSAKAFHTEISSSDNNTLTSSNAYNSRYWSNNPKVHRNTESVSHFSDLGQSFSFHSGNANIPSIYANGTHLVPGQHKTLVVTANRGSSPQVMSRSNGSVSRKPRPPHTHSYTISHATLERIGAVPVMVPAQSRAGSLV

[9] = biological target: T6, human IGSF11 (VSIG3) expressed on cells; assay: IgG1 FACS HEK-OE
[10] = biological target: T7, human IGSF11 (VSIG3) ECD, His-tagged (human, UniProt Q5DX21 23-241); assay: IgG1 ELISA EC50 <0.02 nM
T7 construct: in part bought (SinoBiological 13094-H08H); also called HIS-IGSF11; IGSF11-HIS; not shown: His tag
T7 sequence: T2 sequence

[11] = biological target: T2, extracellular domain (ECD) of human …; assay: SPR
[12] = biological target: T6, human IGSF11 (VSIG3) expressed on cells; assay: FACS, DMS 273 cells with scrambled control siRNA (SC)
[13] = biological target: T6, human IGSF11 (VSIG3) expressed on cells; assay: FACS, M579-A2-luc cells with IGSF11 siRNA (KD, knock-down control)
[14] = biological target: T6, human IGSF11 (VSIG3) expressed on cells; assay: FACS, M579-A2-luc cells with scrambled control siRNA (SC)
[15] = biological target: T6, human IGSF11 (VSIG3) expressed on cells; assay: FACS, DMS 273 cells with IGSF11 siRNA (KD, knock-down control)

Sequence of Streptavidin (P22629 37-163 limits assumed): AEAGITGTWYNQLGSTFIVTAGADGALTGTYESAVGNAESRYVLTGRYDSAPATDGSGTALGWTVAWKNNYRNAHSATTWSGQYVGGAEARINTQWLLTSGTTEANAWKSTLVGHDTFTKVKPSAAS

B1: A-035 (scFv format) (scFv, V domains shown)
VH: QVQLVQSGAEVKKPGASVKVSCKASGYTFTGYYMHWVRQAPGQGLEWMGWINPNSGNTGYAQKFQGRVTMTRNTSISTAYMELSSLRSEDTAVYYCARGRLERGYWYFDLWGRGTLVTVSS
VL: NFMLTQPHSVSESPGRTVTISCTRSSGSITSNYVQWYQQRPGSAPTILIYEDKERPSEVPDRFSGSIDISSNSASLTISGLKTEDEADYYCQSYGGTSQGVLFGGGTKVTVL
notes: scFv
[1]
  ELISA binding signal (RFU): > 1 rfu
[2]
  ELISA binding signal (RFU): 0.5 to 1 rfu

B2: A-011 (scFv format) (scFv, V domains shown)
VH: QVQLVESGGGVVQPGRSLRLSCAASGFTFSSYAMHWVRQAPGKGLEWVAVISYDGSNKYYADSVKGRFTISRDNSKNTLYLQMNSLRAEDTAVYYCAEGGALNYYGMDVWGQGTTVTVSS
VL: SSELTQDPGVSVALGQTVRITCQGDSLRHFYATWYQQKPGQAPILVIYGKNNRPSGIPDRFSGSSSEDTASLTITGAQAEDEADYYCQSRDPRNNHLIFGGGTKLIVL
notes: scFv
[1]
  ELISA binding signal (RFU): > 1 rfu
[3]
  ELISA binding signal (RFU): 0.1 to 0.5 rfu

B3: C-008 (IgG1 format) (antibody, V domains shown)
VH: EVQLLESGGGLVQPGGSLRLSCAASGFTFSSYAMSWVRQAPGKGLEWVSAISGSGGSTYYADSVKGRFTISRDNSKNTLYLQMNSLRAEDTAVYYCTTDNGHNRDWGQGTLVTVSS
VL: ASVLTQPPSVSAAPGQKVTISCSGSSSNIGNNYVSWYQQLPGTAPKLLIYDNNKRPSGIPDRFSGSKSGTSATLGITGLQAEDEADYYCGTWTRSSGVFGGGTKLTVL
[4]
  EC50: < 1 nM
[5]
  EC50: < 1 nM

B4: C-010 (Fab format) (Fab, V domains shown)
VH: QVQLVQSGAEVKKPGSSVKVSCKASGGTFSSYAISWVRQAPGQGLEWMGGIIPIFGTANYAQKFQGRVTITADESTSTAYMELSSLRSEDTAVYYCARGYGEYYPAFDVWGQGTLVTVSS
VL: SYELTQPPSVSVSPGQTASITCSGDKLGDKYASWYQQKPGQSPVLVIYQDSKRPSGIPERFSGSNSGNTATLTISGTQAEDEADYYCASYAHTHSTWVFGGGTKLTVL
notes: Fab from E. coli lysate
[6]
  A450: < 1
Streptavidin
  A450: < 0.1
[7]
  A450: < 1

B5: C-009 (IgG1 format) (antibody, V domains shown)
VH: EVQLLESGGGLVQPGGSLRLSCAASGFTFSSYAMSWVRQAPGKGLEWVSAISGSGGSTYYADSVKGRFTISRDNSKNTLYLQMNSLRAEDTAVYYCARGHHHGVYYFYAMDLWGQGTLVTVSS
VL: B4 VL with A88Q, A91S, H92G, T93S, H94S, S95T, T96L, W97H
[4]
  EC50: < 1 nM
[5]
  EC50: 1 to 20 nM

B6: C-024 (IgG1 format) (antibody, V domains shown)
VH: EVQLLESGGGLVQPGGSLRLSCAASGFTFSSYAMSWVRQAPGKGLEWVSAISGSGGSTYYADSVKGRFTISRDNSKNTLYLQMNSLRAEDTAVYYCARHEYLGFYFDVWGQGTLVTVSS
VL: B4 VL with A88L, S89A, Y90S, A91H, H92R, T93L, H94T, S95L, T96N, W97Y
[4]
  EC50: 1 to 20 nM
[5]
  EC50: 1 to 20 nM

B7: A-004 (scFv format) (scFv, V domains shown)
VH: EVQLVESGGGLVKPGGSLRLSCAASGFTFSSYSMNWVRQAPGKGLEWVSSISSSSSYIYYADSVKGRFTISRDNAKNSLYLQMNSLRAEDTAVYYCARGQLLWFGESALIDAFDIWGQGTMVTVSS
VL: EIVLTQSPSSLSASVGDRVTITCRASQSISSYLNWYQLKPGKAPKLLIYAASILQSGVPSRFSGSGSGTDFTLTISSLQPEDFAAYYCQQSYSTPRTFGQGTKLEIK
notes: scFv
[1]
  ELISA binding signal (RFU): > 1 rfu
[2]
  ELISA binding signal (RFU): 0.5 to 1 rfu

B8: C-006 (Fab format) (Fab, V domains shown)
VH: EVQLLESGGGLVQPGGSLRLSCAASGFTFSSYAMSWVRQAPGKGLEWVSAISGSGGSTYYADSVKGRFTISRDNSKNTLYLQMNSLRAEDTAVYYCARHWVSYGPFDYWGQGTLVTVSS
VL: DIQMTQSPSSLSASVGDRVTITCRASQSISSYLNWYQQKPGKAPKLLIYAASSLQSGVPSRFSGSGSGTDFTLTISSLQPEDFATYYCQQSHQSPPITFGQGTKVEIK
notes: Fab from E. coli lysate
[7]
  A450: < 1

B9: C-012 (Fab format) (Fab, V domains shown)
VH: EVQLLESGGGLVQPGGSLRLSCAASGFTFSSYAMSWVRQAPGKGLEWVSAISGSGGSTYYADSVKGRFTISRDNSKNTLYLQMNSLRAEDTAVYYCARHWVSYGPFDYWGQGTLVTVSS
VL: B8 VL
notes: Fab from E. coli lysate
[7]
  A450: < 1

B10: A-013 (IgG1 format) (antibody, V domains shown)
VH: EVQLVESGGGLIQPGGSLRLSCAASGFTVSSNYMSWVRQAPGKGLEWVSVIYSGGSTYYADSVKGRFTISRDNSKNTLYLQMNSLRAEDTAVYYCARGNPYYYGDLQVNFDYWGQGTLVTVSS
VL: QAVVTQEPSLTVSPGGTVTLTCASSTGAVTSAYYPNWFQQKPGQAPRALIYSTSNKHSWTPARFSGSLLGGKAALTLSGVQPEDEADYYCLLYYGGAWVFGGGTKLTVL
notes: human IgG1 format
[8]
  EC50: > 50 nM
[9]
  EC50: 10 to 50 nM
[10]
  EC50: < 0.02 nM
[11]
  Kd: 100 to 250 nM

B11: C-026 (IgG1 format) (antibody, V domains shown)
VH: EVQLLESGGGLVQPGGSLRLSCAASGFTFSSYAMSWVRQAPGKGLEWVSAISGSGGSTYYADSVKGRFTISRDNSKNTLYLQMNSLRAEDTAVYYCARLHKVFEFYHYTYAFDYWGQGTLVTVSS
VL: ASVLTQPPSVSAAPGQKVTISCSGSSSNIGNNYVSWYQQLPGTAPKLLIYDNNKRPSGIPDRFSGSKSGTSATLGITGLQAEDEADYYCASYSSETSGWVFGGGTKLTVL
[4]
  EC50: < 1 nM
[5]
  EC50: 1 to 20 nM

B12: A-015 (IgG1 format) (antibody, V domains shown)
VH: not shown
VL: QPVLTQSPSASASLGASVKLTCTLSSGHTNYAIAWRQQQPGKAPRYLMLLNSDGSHTRGGGIPDRFSGSSSGAERYLTISSLQSEDEADYYCMIWHNNAWVFGGGTKLAVL
notes: human IgG1 format
[12]
  % binding (FACS heat-map): 5.97%
[13]
  % binding (FACS heat-map): 1.3%
[14]
  % binding (FACS heat-map): 1.17%
[15]
  % binding (FACS heat-map): 1.6%

B13: A-022 (scFv format) (scFv, V domains shown)
VH: EVQLLESGPGLVKPSQTLSLTCTVSGGSISSGGYYWSWIRQHPGKGLEWIGYIYYSGSTYYNPSLKSRVTISVDTSKNQFSLKLSSVTAADTAVYYCARASRSTDYYFDYWGQGTLVTVSS
VL: QPGLTQPPSMSYGLGQTATLTCTGNRNNIGDQGAAWLQQHQGHPPKLLSYRNNNGPSGISERLSASRSGNTASLTISGLQPEDEADYYCSAWDSSLRAWVFGGGTKLTVL
notes: scFv
[1]
  ELISA binding signal (RFU): > 1 rfu
[2]
  ELISA binding signal (RFU): 0.5 to 1 rfu

B14: A-007 (IgG1 format) (antibody, V domains shown)
VH: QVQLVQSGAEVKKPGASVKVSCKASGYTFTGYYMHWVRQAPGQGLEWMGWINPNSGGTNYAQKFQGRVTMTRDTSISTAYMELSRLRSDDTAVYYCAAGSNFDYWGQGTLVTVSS
VL: QSALTQPASVSGSPGQSITIACTGSSSDIGSFSYVSWYQQRPGKAPTLIIYGVNNRPLGVSRRFSGSKSGNTASLSISGLQAEDEADYYCSSYTRRSTVIFGGGTKLTVL
notes: human IgG1 format
[8]
  EC50: < 10 nM
[12]
  % binding (FACS heat-map): 82.3%
[9]
  EC50: < 10 nM
[13]
  % binding (FACS heat-map): 9.15%
[10]
  EC50: < 0.02 nM
[14]
  % binding (FACS heat-map): 65.6%
[15]
  % binding (FACS heat-map): 34.2%

B15: C-025 (IgG1 format) (antibody, V domains shown)
VH: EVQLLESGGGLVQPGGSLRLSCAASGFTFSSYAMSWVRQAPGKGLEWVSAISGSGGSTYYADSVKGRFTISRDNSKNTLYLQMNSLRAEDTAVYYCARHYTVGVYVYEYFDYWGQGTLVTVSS
VL: SYELTQPPSVSVSPGQTASITCSGDKLGDKYASWYQQKPGQSPVLVIYQDSKRPSGIPERFSGSNSGNTATLTISGTQAEDEADYYCQSYATAGFVFGGGTKLTVL
[4]
  EC50: < 1 nM
[5]
  EC50: 1 to 20 nM
